Target: T1, fluorescently quenched α-gliadin hexapeptide analogue QXL520-PQPQLP-K(5-FAM)-NH2
T1 chain: PQPQLP

| Protein | Fold Change in Activity of PQ Hydrolysis Relative to Wild Type Kumamolysin-As [fold] |
| --- | --- |
| Kumamolysin-As N291D, Q361D (protein) MSDMEKPWKEGEEARAVLQGHARAQAPQAVDKGPVAGDERMAVTVVLRRQRAGELAAHVERQAAIAPHAREHLKREAFAASHGASLDDFAELRRFADAHGLALDRANVAAGTAVLSGPVDAINRAFGVELRHFDHPDGSYRSYLGEVTVPASIAPMIEAVLGLDTRPVARPHFRMQRRAEGGFEARSQAAAPTAYTPLDVAQAYQFPEGLDGQGQCIAIIELGGGYDEASLAQYFASLGVPAPQVVSVSVDGASNQPTGDPSGPDGEVELDIEVAGALAPGAKFAVYFAPDTDAGFLDAITTAIHDPTLKPSVVSISWGGPEDSWTSAAIAAMNRAFLDAAALGVTVLAAAGDSGSTDGEDDGLYHVDFPAASPYVLACGGTRLVASGGRIAQETVWNDGPDGGATGGGVSRIFPLPAWQEHANVPPSANPGASSGRGVPDLAGNADPATGYEVVIDGEATVIGGTSAVAPLFAALVARINQKLGKAVGYLNPTLYQLPADVFHDITEGNNDIANRAQIYQAGPGWDPCTGLGSPIGVRLLQALLPSASQPQPGSTENLYFQSGALEHHHHHH | 7.5 |
| Kumamolysin-As S354N, D358G, D368H (protein) MSDMEKPWKEGEEARAVLQGHARAQAPQAVDKGPVAGDERMAVTVVLRRQRAGELAAHVERQAAIAPHAREHLKREAFAASHGASLDDFAELRRFADAHGLALDRANVAAGTAVLSGPVDAINRAFGVELRHFDHPDGSYRSYLGEVTVPASIAPMIEAVLGLDTRPVARPHFRMQRRAEGGFEARSQAAAPTAYTPLDVAQAYQFPEGLDGQGQCIAIIELGGGYDEASLAQYFASLGVPAPQVVSVSVDGASNQPTGDPSGPDGEVELDIEVAGALAPGAKFAVYFAPNTDAGFLDAITTAIHDPTLKPSVVSISWGGPEDSWTSAAIAAMNRAFLDAAALGVTVLAAAGDNGSTGGEQDGLYHVHFPAASPYVLACGGTRLVASGGRIAQETVWNDGPDGGATGGGVSRIFPLPAWQEHANVPPSANPGASSGRGVPDLAGNADPATGYEVVIDGEATVIGGTSAVAPLFAALVARINQKLGKAVGYLNPTLYQLPADVFHDITEGNNDIANRAQIYQAGPGWDPCTGLGSPIGVRLLQALLPSASQPQPGSTENLYFQSGALEHHHHHH | 9 |
| Kumamolysin-As N291D (protein) MSDMEKPWKEGEEARAVLQGHARAQAPQAVDKGPVAGDERMAVTVVLRRQRAGELAAHVERQAAIAPHAREHLKREAFAASHGASLDDFAELRRFADAHGLALDRANVAAGTAVLSGPVDAINRAFGVELRHFDHPDGSYRSYLGEVTVPASIAPMIEAVLGLDTRPVARPHFRMQRRAEGGFEARSQAAAPTAYTPLDVAQAYQFPEGLDGQGQCIAIIELGGGYDEASLAQYFASLGVPAPQVVSVSVDGASNQPTGDPSGPDGEVELDIEVAGALAPGAKFAVYFAPDTDAGFLDAITTAIHDPTLKPSVVSISWGGPEDSWTSAAIAAMNRAFLDAAALGVTVLAAAGDSGSTDGEQDGLYHVDFPAASPYVLACGGTRLVASGGRIAQETVWNDGPDGGATGGGVSRIFPLPAWQEHANVPPSANPGASSGRGVPDLAGNADPATGYEVVIDGEATVIGGTSAVAPLFAALVARINQKLGKAVGYLNPTLYQLPADVFHDITEGNNDIANRAQIYQAGPGWDPCTGLGSPIGVRLLQALLPSASQPQPGSTENLYFQSGALEHHHHHH | 10 |
| Kumamolysin-As N291D, D293A, Q361D, D358N (protein) MSDMEKPWKEGEEARAVLQGHARAQAPQAVDKGPVAGDERMAVTVVLRRQRAGELAAHVERQAAIAPHAREHLKREAFAASHGASLDDFAELRRFADAHGLALDRANVAAGTAVLSGPVDAINRAFGVELRHFDHPDGSYRSYLGEVTVPASIAPMIEAVLGLDTRPVARPHFRMQRRAEGGFEARSQAAAPTAYTPLDVAQAYQFPEGLDGQGQCIAIIELGGGYDEASLAQYFASLGVPAPQVVSVSVDGASNQPTGDPSGPDGEVELDIEVAGALAPGAKFAVYFAPDTAAGFLDAITTAIHDPTLKPSVVSISWGGPEDSWTSAAIAAMNRAFLDAAALGVTVLAAAGDSGSTNGEDDGLYHVDFPAASPYVLACGGTRLVASGGRIAQETVWNDGPDGGATGGGVSRIFPLPAWQEHANVPPSANPGASSGRGVPDLAGNADPATGYEVVIDGEATVIGGTSAVAPLFAALVARINQKLGKAVGYLNPTLYQLPADVFHDITEGNNDIANRAQIYQAGPGWDPCTGLGSPIGVRLLQALLPSASQPQPGSTENLYFQSGALEHHHHHH | 14.8 |
| Kumamolysin-As N291D, D293A (protein) MSDMEKPWKEGEEARAVLQGHARAQAPQAVDKGPVAGDERMAVTVVLRRQRAGELAAHVERQAAIAPHAREHLKREAFAASHGASLDDFAELRRFADAHGLALDRANVAAGTAVLSGPVDAINRAFGVELRHFDHPDGSYRSYLGEVTVPASIAPMIEAVLGLDTRPVARPHFRMQRRAEGGFEARSQAAAPTAYTPLDVAQAYQFPEGLDGQGQCIAIIELGGGYDEASLAQYFASLGVPAPQVVSVSVDGASNQPTGDPSGPDGEVELDIEVAGALAPGAKFAVYFAPDTAAGFLDAITTAIHDPTLKPSVVSISWGGPEDSWTSAAIAAMNRAFLDAAALGVTVLAAAGDSGSTDGEQDGLYHVDFPAASPYVLACGGTRLVASGGRIAQETVWNDGPDGGATGGGVSRIFPLPAWQEHANVPPSANPGASSGRGVPDLAGNADPATGYEVVIDGEATVIGGTSAVAPLFAALVARINQKLGKAVGYLNPTLYQLPADVFHDITEGNNDIANRAQIYQAGPGWDPCTGLGSPIGVRLLQALLPSASQPQPGSTENLYFQSGALEHHHHHH | 15 |
| Kumamolysin-As N291D, D293A, D358G, Q361D (protein) MSDMEKPWKEGEEARAVLQGHARAQAPQAVDKGPVAGDERMAVTVVLRRQRAGELAAHVERQAAIAPHAREHLKREAFAASHGASLDDFAELRRFADAHGLALDRANVAAGTAVLSGPVDAINRAFGVELRHFDHPDGSYRSYLGEVTVPASIAPMIEAVLGLDTRPVARPHFRMQRRAEGGFEARSQAAAPTAYTPLDVAQAYQFPEGLDGQGQCIAIIELGGGYDEASLAQYFASLGVPAPQVVSVSVDGASNQPTGDPSGPDGEVELDIEVAGALAPGAKFAVYFAPDTAAGFLDAITTAIHDPTLKPSVVSISWGGPEDSWTSAAIAAMNRAFLDAAALGVTVLAAAGDSGSTGGEDDGLYHVDFPAASPYVLACGGTRLVASGGRIAQETVWNDGPDGGATGGGVSRIFPLPAWQEHANVPPSANPGASSGRGVPDLAGNADPATGYEVVIDGEATVIGGTSAVAPLFAALVARINQKLGKAVGYLNPTLYQLPADVFHDITEGNNDIANRAQIYQAGPGWDPCTGLGSPIGVRLLQALLPSASQPQPGSTENLYFQSGALEHHHHHH | 15 |
| Kumamolysin-As N291D, D358N (protein) MSDMEKPWKEGEEARAVLQGHARAQAPQAVDKGPVAGDERMAVTVVLRRQRAGELAAHVERQAAIAPHAREHLKREAFAASHGASLDDFAELRRFADAHGLALDRANVAAGTAVLSGPVDAINRAFGVELRHFDHPDGSYRSYLGEVTVPASIAPMIEAVLGLDTRPVARPHFRMQRRAEGGFEARSQAAAPTAYTPLDVAQAYQFPEGLDGQGQCIAIIELGGGYDEASLAQYFASLGVPAPQVVSVSVDGASNQPTGDPSGPDGEVELDIEVAGALAPGAKFAVYFAPDTDAGFLDAITTAIHDPTLKPSVVSISWGGPEDSWTSAAIAAMNRAFLDAAALGVTVLAAAGDSGSTNGEQDGLYHVDFPAASPYVLACGGTRLVASGGRIAQETVWNDGPDGGATGGGVSRIFPLPAWQEHANVPPSANPGASSGRGVPDLAGNADPATGYEVVIDGEATVIGGTSAVAPLFAALVARINQKLGKAVGYLNPTLYQLPADVFHDITEGNNDIANRAQIYQAGPGWDPCTGLGSPIGVRLLQALLPSASQPQPGSTENLYFQSGALEHHHHHH | 18.9 |
| Kumamolysin-As N291D, Q361D, D358G (protein) MSDMEKPWKEGEEARAVLQGHARAQAPQAVDKGPVAGDERMAVTVVLRRQRAGELAAHVERQAAIAPHAREHLKREAFAASHGASLDDFAELRRFADAHGLALDRANVAAGTAVLSGPVDAINRAFGVELRHFDHPDGSYRSYLGEVTVPASIAPMIEAVLGLDTRPVARPHFRMQRRAEGGFEARSQAAAPTAYTPLDVAQAYQFPEGLDGQGQCIAIIELGGGYDEASLAQYFASLGVPAPQVVSVSVDGASNQPTGDPSGPDGEVELDIEVAGALAPGAKFAVYFAPDTDAGFLDAITTAIHDPTLKPSVVSISWGGPEDSWTSAAIAAMNRAFLDAAALGVTVLAAAGDSGSTGGEDDGLYHVDFPAASPYVLACGGTRLVASGGRIAQETVWNDGPDGGATGGGVSRIFPLPAWQEHANVPPSANPGASSGRGVPDLAGNADPATGYEVVIDGEATVIGGTSAVAPLFAALVARINQKLGKAVGYLNPTLYQLPADVFHDITEGNNDIANRAQIYQAGPGWDPCTGLGSPIGVRLLQALLPSASQPQPGSTENLYFQSGALEHHHHHH | 20 |
| Kumamolysin-As N291D, G319S, D358G, Q361D, D368H (protein) MSDMEKPWKEGEEARAVLQGHARAQAPQAVDKGPVAGDERMAVTVVLRRQRAGELAAHVERQAAIAPHAREHLKREAFAASHGASLDDFAELRRFADAHGLALDRANVAAGTAVLSGPVDAINRAFGVELRHFDHPDGSYRSYLGEVTVPASIAPMIEAVLGLDTRPVARPHFRMQRRAEGGFEARSQAAAPTAYTPLDVAQAYQFPEGLDGQGQCIAIIELGGGYDEASLAQYFASLGVPAPQVVSVSVDGASNQPTGDPSGPDGEVELDIEVAGALAPGAKFAVYFAPDTDAGFLDAITTAIHDPTLKPSVVSISWSGPEDSWTSAAIAAMNRAFLDAAALGVTVLAAAGDSGSTGGEDDGLYHVHFPAASPYVLACGGTRLVASGGRIAQETVWNDGPDGGATGGGVSRIFPLPAWQEHANVPPSANPGASSGRGVPDLAGNADPATGYEVVIDGEATVIGGTSAVAPLFAALVARINQKLGKAVGYLNPTLYQLPADVFHDITEGNNDIANRAQIYQAGPGWDPCTGLGSPIGVRLLQALLPSASQPQPGSTENLYFQSGALEHHHHHH | 23.1 |
| Kumamolysin-As N291D, D293A, D358N (protein) MSDMEKPWKEGEEARAVLQGHARAQAPQAVDKGPVAGDERMAVTVVLRRQRAGELAAHVERQAAIAPHAREHLKREAFAASHGASLDDFAELRRFADAHGLALDRANVAAGTAVLSGPVDAINRAFGVELRHFDHPDGSYRSYLGEVTVPASIAPMIEAVLGLDTRPVARPHFRMQRRAEGGFEARSQAAAPTAYTPLDVAQAYQFPEGLDGQGQCIAIIELGGGYDEASLAQYFASLGVPAPQVVSVSVDGASNQPTGDPSGPDGEVELDIEVAGALAPGAKFAVYFAPDTAAGFLDAITTAIHDPTLKPSVVSISWGGPEDSWTSAAIAAMNRAFLDAAALGVTVLAAAGDSGSTNGEQDGLYHVDFPAASPYVLACGGTRLVASGGRIAQETVWNDGPDGGATGGGVSRIFPLPAWQEHANVPPSANPGASSGRGVPDLAGNADPATGYEVVIDGEATVIGGTSAVAPLFAALVARINQKLGKAVGYLNPTLYQLPADVFHDITEGNNDIANRAQIYQAGPGWDPCTGLGSPIGVRLLQALLPSASQPQPGSTENLYFQSGALEHHHHHH | 24 |

From US10487318
